Positions count from the first letter of the chain named.
Assays:
BnaA.bZIP1-His [1] = target: T1, BnaA.bZIP1-His (Brassica napus, UniProt A0A078IFD5 1-139); test: EMSA; EMSA: 10 ul with 2 ul 5x EMSA/Gel-Shift Binding Buffer (Beyotime), 30 nM Cy5 probe, 30 min at 25 C; 6% native PAGE, 0.5x TBE pH 8.3, 4 C; details: protein: recombinant, tags: His, pET-32a fusion (N-terminal vector tag), blunt
T1 sequence: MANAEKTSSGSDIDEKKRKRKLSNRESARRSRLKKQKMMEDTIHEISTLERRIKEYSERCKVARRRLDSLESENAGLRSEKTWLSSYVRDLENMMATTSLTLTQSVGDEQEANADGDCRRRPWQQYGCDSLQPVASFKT

BnaA.bZIP1-His [2] = target: T1, BnaA.bZIP1-His; test: competition; unlabeled probe at 200x, 400x, 800x reduces shift of Cy5-p59; EMSA: 10 ul with 2 ul 5x EMSA/Gel-Shift Binding Buffer (Beyotime), 30 nM Cy5 probe, 30 min at 25 C; 6% native PAGE, 0.5x TBE pH 8.3, 4 C; details: protein: recombinant; tags: His; pET-32a fusion (N-terminal vector tag); blunt

B1: p59 (dsDNA)
DNA 1: AACGAAAGCCACCTCACGTCGTGCTATTTTCGGTGTAACCTTAACGGTGGATCTTTAAA
DNA 2: TTTAAAGATCCACCGTTAAGGTTACACCGAAAATAGCACGACGTGAGGTGGCTTTCGTT
Question: Does B1 bind (BnaA.bZIP1-His [1]; label: Cy5 (p59-CY5-F strand))?
Answer: binds

B2: p59 unlabeled competitor (dsDNA)
DNA 1: B1 DNA 1
DNA 2: B1 DNA 2
Question: Does B2 bind (BnaA.bZIP1-His [2])?
Answer: binds

B3: mp59 (dsDNA)
DNA 1: B1 DNA 1 with A16T, C17A, G18T, T19G, C20A
DNA 2: B1 DNA 2 with G40T, A41C, C42A, G43T, T44A
Question: Does B3 bind (BnaA.bZIP1-His [1]; label: Cy5 (mp59-CY5-F strand))?
Answer: no binding

Reference: PMC5732959, “BnaA.bZIP1 Negatively Regulates a Novel Small Peptide Gene, BnaC.SP6, Involved in Pollen Activity”
